Assay [1] has as its target IL-TIF protein (SEQ ID NO:3) (human) (UniProt Q9GZX6). Briefly: cell-based or functional assay.
Assay [2] deals with T1, CRF2-4/zcytor11 heterodimeric receptor on BaF3/CRF2-4/zcytor11 cells (human, UniProt Q08334 20-325).
T1 sequence 1: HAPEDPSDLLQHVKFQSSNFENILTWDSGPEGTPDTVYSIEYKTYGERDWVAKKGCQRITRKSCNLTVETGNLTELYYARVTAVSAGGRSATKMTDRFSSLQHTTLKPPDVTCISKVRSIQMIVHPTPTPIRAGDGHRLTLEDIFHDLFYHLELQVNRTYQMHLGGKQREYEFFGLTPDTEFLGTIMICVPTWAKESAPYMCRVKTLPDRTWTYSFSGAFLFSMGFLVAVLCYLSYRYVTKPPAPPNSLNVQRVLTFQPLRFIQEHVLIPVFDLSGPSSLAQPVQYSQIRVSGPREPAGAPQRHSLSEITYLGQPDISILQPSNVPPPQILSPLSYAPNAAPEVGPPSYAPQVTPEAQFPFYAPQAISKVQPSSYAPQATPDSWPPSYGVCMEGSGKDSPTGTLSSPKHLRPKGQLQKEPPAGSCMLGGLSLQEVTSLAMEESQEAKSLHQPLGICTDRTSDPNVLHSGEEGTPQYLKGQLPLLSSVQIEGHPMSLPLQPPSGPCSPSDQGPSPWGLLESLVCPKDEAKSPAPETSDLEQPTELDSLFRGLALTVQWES
T1 sequence 2: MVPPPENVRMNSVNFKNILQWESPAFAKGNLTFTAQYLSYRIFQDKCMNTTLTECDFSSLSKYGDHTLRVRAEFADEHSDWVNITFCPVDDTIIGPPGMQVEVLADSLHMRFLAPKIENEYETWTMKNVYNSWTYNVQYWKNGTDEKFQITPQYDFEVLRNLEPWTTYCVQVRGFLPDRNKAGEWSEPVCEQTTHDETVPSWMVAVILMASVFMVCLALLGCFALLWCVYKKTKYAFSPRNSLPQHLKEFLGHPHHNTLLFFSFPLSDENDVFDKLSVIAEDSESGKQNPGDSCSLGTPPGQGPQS
Briefly: cell-based or functional assay.

In assay [1], “CRF2-4/zcytor11-Fc4 soluble heterodimer receptor (Fc fusion)” showed a concentration at which inhibition of IL-TIF-induced proliferation was barely detectable of 63 ng/mL, a concentration giving complete inhibition of IL-TIF-induced proliferation of 8 µg/mL and a concentration giving partial inhibition of IL-TIF-induced proliferation of 0.125 to 4 µg/mL.

B1: IL-TIF-CEE polypeptide purified from BHK 570 cells (ligand)
chain: APISSHCRLDKSNFQQPYITNRTFMLAKEASLADNNTDVRLIGEKLFHGVSMSERCYLMKQVLNFTLEEVLFPQSDRFQPYMQEVVPFLARLSNRLSTCHIEGDDLHIQRNVQKLKDTVKKLGESGEIKAIGELDLLFMSLRNACIEYMPME
Take B1: in assay [2], the “proliferation of BaF3/CRF2-4/zcytor11 cells (Alamar Blue), fold induction at 0.06 ng/ml IL-TIF-CEE” value worked out at 2 fold and the “proliferation of BaF3/CRF2-4/zcytor11 cells (Alamar Blue), fold over background at 50 ng/ml IL-TIF-CEE” value is roughly 15 fold.

B2: IL-TIF protein (SEQ ID NO:3) (ligand)
chain: APISSHCRLDKSNFQQPYITNRTFMLAKEASLADNNTDVRLIGEKLFHGVSMSERCYLMKQVLNFTLEEVLFPQSDRFQPYMQEVVPFLARLSNRLSTCHIEGDDLHIQRNVQKLKDTVKKLGESGEIKAIGELDLLFMSLRNACI
In the case of B2, in assay [2], the “proliferation of BaF3/CRF2-4/zcytor11 cells (Alamar Blue) at 100 pg/ml IL-TIF” value stood at 13 fold.

The values are drawn from patent US20040023341A1 (ZymoGenetics, published 2004).
